Data from patent publication US20170281792A1 (Genentech, published 2017).

T1: gD epitope-tagged cynomolgus monkey mesothelin expressed on cells (construct #383) (cynomolgus monkey)
T1 construct: also called cyno mesothelin
T1 chain: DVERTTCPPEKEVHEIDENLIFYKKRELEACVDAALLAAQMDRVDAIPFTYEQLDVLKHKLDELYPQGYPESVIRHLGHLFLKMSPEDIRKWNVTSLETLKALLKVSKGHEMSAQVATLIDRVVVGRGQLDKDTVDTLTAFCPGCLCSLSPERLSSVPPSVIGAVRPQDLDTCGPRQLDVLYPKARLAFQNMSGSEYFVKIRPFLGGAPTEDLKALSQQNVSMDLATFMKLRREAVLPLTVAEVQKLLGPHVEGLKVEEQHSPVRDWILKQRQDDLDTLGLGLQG

T2: gD epitope-tagged mouse mesothelin expressed on cells (construct #385) (mouse, UniProt Q61468 298-582)
T2 sequence: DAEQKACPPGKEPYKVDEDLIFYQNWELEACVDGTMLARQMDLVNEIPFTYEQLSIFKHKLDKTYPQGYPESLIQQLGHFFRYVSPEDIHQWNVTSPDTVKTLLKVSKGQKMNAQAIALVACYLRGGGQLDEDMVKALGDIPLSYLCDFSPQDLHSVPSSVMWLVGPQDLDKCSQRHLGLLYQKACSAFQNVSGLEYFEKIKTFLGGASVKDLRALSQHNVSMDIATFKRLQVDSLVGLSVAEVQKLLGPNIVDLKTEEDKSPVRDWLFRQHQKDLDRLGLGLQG

T3: gD epitope-tagged rat mesothelin expressed on cells (rat, UniProt Q9ERA7 298-582)
T3 sequence: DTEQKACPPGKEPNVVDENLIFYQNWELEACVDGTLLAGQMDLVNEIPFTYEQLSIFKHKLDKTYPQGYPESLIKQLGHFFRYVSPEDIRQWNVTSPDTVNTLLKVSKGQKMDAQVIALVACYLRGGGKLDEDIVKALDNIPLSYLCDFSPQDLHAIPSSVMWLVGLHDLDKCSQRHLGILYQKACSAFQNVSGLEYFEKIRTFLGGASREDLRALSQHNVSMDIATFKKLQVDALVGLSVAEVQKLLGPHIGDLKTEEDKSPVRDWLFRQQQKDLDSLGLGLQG


How the values were obtained:
[1] = biological target: T4, human mesothelin on cells (endogenous on tumour cell lines and tissue, or stably expressed on A431 or HT1080 … (human, UniProt Q13421 296-580)); assay: Scatchard analysis (125I-labelled antibody) on HPAF-II cells, endogenous mesothelin
T4 construct: also called endogenous mesothelin; endogenous human mesothelin
Description: (§1) The data was analyzed with non-linear regression curve fitting in the New Ligand program (Genentech, Inc., South San Francisco, Calif.) to estimate Kd values (Munson et al., Anal. Biochem., 107 220-239 (1980)).

[2] = biological target: T1, gD epitope-tagged cynomolgus monkey …; assay: immunoprecipitation from BJAB cells stably expressing gD-tagged cyno mesothelin, Western blot with murine anti-gD
[3] = biological target: T4, human mesothelin on cells (endogenous …); assay: Scatchard; range for endogenous mesothelin in four pancreatic and two ovarian cell lines
Description: as §1

[4] = biological target: T5, gD epitope-tagged human mesothelin expressed on cells (construct #387) (human, UniProt Q13421 296-580); assay: Scatchard, 125I-labelled antibody on stably transfected HT1080 cells
T5 construct: also called gD-human mesothelin; gD-tagged human mesothelin
Description: as §1

[5] = biological target: T4, human mesothelin on cells (endogenous …); assay: Scatchard analysis (125I-labelled antibody) on Capan2 cells, endogenous mesothelin
Description: as §1

[6] = biological target: T4, human mesothelin on cells (endogenous …); assay: Scatchard analysis (125I-labelled antibody) on OvCar3 cells, endogenous mesothelin
Description: as §1

[7] = biological target: T6, E. coli derived recombinant human mesothelin (human, UniProt Q13421 296-580); assay: Biacore-2000, IgG over immobilised E. coli derived human mesothelin, 1:1 fit
T6 construct: not shown: N-terminal unizyme His (HQ)-tag
Description: 7D9 variants were expressed as IgG by CHO transient transfection. IgG was purified with protein G affinity chromatography. The affinity of each 7D9 IgG variant for human mesothelin was determined by surface plasmon resonance using a BIACORE™-2000. BIACORE™ research grade CM5 chips were immobilized with approximately 110 RU of E. coli derived recombinant human mesothelin using the amine coupling kit from BIACORE™. […] Each sample was analyzed with 5-minute association and 3.5-minute dissociation. After each injection the chip was regenerated using 10 mM Glycine pH 1.7. Binding response was corrected by subtracting the RU from a flow cell with an irrelevant IgG immobilized at similar density. A 1:1 Languir model of simultaneous fitting of kₒₙ and koff was used for kinetics analysis.

[8] = biological target: T4, human mesothelin on cells (endogenous …); assay: Scatchard analysis (125I-labelled antibody) on HPAC cells, endogenous mesothelin
Description: as §1

[9] = biological target: T2, gD epitope-tagged mouse mesothelin …; assay: FACS on stably transfected 293 cells
Description: Monoclonal antibodies were tested to determine if they cross-react with mesothelin from species other than human. […] Shaded residues are identical between at least two species. Unshaded residues differ between at least two of the four species. […] Anti-gD staining verified that mouse mesothelin was indeed expressed.

[10] = biological target: T5, gD epitope-tagged human mesothelin …; assay: Scatchard, 125I-labelled antibody on stably transfected BJAB cells
Description: as §1

[11] = biological target: T3, gD epitope-tagged rat mesothelin …; assay: immunoprecipitation from BJAB cells stably expressing gD-tagged rat mesothelin, Western blot with murine anti-gD
[12] = biological target: T5, gD epitope-tagged human mesothelin …; assay: Scatchard, 125I-labelled antibody on stably transfected 293 cells
Description: as §1

[13] = biological target: T7, C-terminally his-tagged human mesothelin expressed in CHO cells (Mono S fractions A11, A12, B1, B5) (human, UniProt Q13421 296-580); assay: SPR: each Mono S fraction (A11, A12, B1, B5) flowed over a chip with prebound h7D9.v3
T7 construct: also called glycosylated mesothelin; not shown: C-terminal his tag
Description: To determine whether h7D9.v3 binds to glycosylated mesothelin, C-terminally his-tagged human mesothelin was expressed in CHO cells, purified and further separated according to charge on a Mono S column into fractions with high (fraction A11), medium (A12), low (B1) and low-to-none (B5) glycosylation of mesothelin, as shown by Coomassie Blue staining on an SDS-PAGE gel. (FIG. 20, top left). […] (FIG. 20, right).

[14] = biological target: T4, human mesothelin on cells (endogenous …); assay: Scatchard analysis (125I-labelled antibody) on OvCar3x2.1 cells, endogenous mesothelin
Description: as §1

[15] = biological target: T4, human mesothelin on cells (endogenous …); assay: Scatchard analysis (125I-labelled antibody) on AsPC1 cells, endogenous mesothelin
Description: as §1

[16] = biological target: T2, gD epitope-tagged mouse mesothelin …; assay: FACS on transiently transfected 293 cells
[17] = biological target: T1, gD epitope-tagged cynomolgus monkey …; assay: FACS on transiently transfected 293 cells
[18] = biological target: T6, E. coli derived recombinant human …; assay: Biacore (column 'Kd (nM) Biacore'); antigen preparation not given, the filing's Biacore assays use E. coli derived human mesothelin

T5 sequence (Q13421 other isoform, or with tags, fused parts or gaps): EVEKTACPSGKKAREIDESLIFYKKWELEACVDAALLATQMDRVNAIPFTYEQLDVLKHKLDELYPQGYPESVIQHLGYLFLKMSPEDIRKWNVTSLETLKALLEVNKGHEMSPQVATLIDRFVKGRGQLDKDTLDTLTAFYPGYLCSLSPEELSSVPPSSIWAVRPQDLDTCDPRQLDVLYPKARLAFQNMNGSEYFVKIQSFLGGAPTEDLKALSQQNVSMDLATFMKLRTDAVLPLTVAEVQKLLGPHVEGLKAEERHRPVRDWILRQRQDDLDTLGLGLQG
T4 sequence (Q13421 other isoform, or with tags, fused parts or gaps): as above
T6 sequence (Q13421 other isoform, or with tags, fused parts or gaps): as above
T7 sequence (Q13421 other isoform, or with tags, fused parts or gaps limits assumed): as the sequence (Q13421 other isoform, or with tags, fused parts or gaps) above

Row | Binder | Kd [1] [nM] | binding result [2] | Kd [3] [nM] | Kd [4] [nM] | Kd [5] [nM] | Kd [6] [nM] | Kd [7] [nM] | Kd [8] [nM] | binding result [9] | Kd [10] [nM] | binding result [11] | Kd [12] [nM] | Kd [13] [nM] | Kd [14] [nM] | Kd [15] [nM] | binding result [16] | binding result [17] | Kd [18] [nM]
1 | humanized monoclonal antibody 7D9.v3 (antibody, V domains shown, also called h7D9.v3; hu7D9.v3) VH: EVQLVESGGGLVQPGGSLRLSCAASGYTFTTYWMHWVRQAPGKGLEWVGYIRPSTGYTEYNQKFKDRFTISADTSKNTAYLQMNSLRAEDTAVYYCARSRWLLDYWGQGTLVTVS VL: DIQMTQSPSSLSASVGDRVTITCKSSQSVLYSSNQKNYLAWFQQKPGKAPKLLIYWASTRESGVPSRFSGSGSGTDFTLTISSLQPEDFATYFCHQYLSSYTFGQGTKVEIKR | 0.41 | no binding | 0.41 to 1 | 0.97 | 0.63 | 0.53 | 1.9 | 1 | no binding (tested: 10 µg/ml) | 0.25 | no binding | 0.2 | 1.5 | 0.56 | 0.58 |  |  | 
2 | mouse monoclonal antibody 7D9 (antibody, V domains shown, also called m7D9; mu7D9) VH: QVQLQQSGAELAKPGASVKMSCKASGYTFTTYWMHWVKQRPGQGLEWIGYIRPSTGYTEYNQKFKDKATLTADKSSSTAYMQLSSLTSEDSTVYYCARSRWLLDYWGQGTSLTVS VL: DIMMTQSPSSLAVSAGEKVTMSCKSSQSVLYSSNQKNYLAWFQQKPGQSPKLLIYWASTRESGVPDRFTGSGSGTDFTLTISSVQAEDLAVYFCHQYLSSYTFGGGTKVEIK |  |  |  |  |  |  |  |  |  |  |  |  |  |  |  | no binding (tested: 0.02 µg/ml) | no binding (tested: 0.02 µg/ml) | 0.23
